Assay: soluble fraction after stress (log2 fold change); higher = more stays soluble; pooled small domains, quantitative proteomics
Settings: stress: pH 4
Outline: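 Aggregation propensity is read out as the fold change in how much of each domain remains soluble after acid stress. The custom small-domain libraries were pooled, held at pH 4 and analysed with high-throughput quantitative proteomics. On the log2 scale used, higher values mean more of the domain stayed soluble.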

First: HMGMNSGQADFRGISLALSVDAEAEAQRLFTALADGGQVQMPLSKTFFSPAFGMVADRFGVGWMVVTN
Second: HMSNEDAYIKLRNGFLATLSEADLLLFTLREEGKTQKEIADQLGYKTHSAVSKRLQTMRGQFEGYLKTQ
The “soluble fraction (log2)” value of the first is higher: -0.0936 for the first, -0.818 for the second.

Going from “HMDIYENIDKELSKQGKSRRKLAIAAGIPPSTFQSMMERKRGLSVENLRKIAEVLNLKWYDLL” to “HMKDSIQIPNVVGMTIKDAQSQYGKSFSIIEQNRTESTKPAGTILEQTPAGGDTVSKRDNIIIRVVVSLG”, the “soluble fraction (log2)” value rises from 0.135 to 0.36.

Going from “HMNPEAFIQTLKQILSTYEKNDPIYLQEIKADLVKKFRIEIPINALETYLKENGYSNIYLKR” to “HMREVDKRYYKINIAGTDRIFTNVYRVGDRYSAYEADKNGKPGKFLYSLSQAEIDRAVISGSFDFK”, the “soluble fraction (log2)” value rises from -0.516 to 0.121.

“HMENVRKTEWVTISNDKSQTRTTVYFESGNQKLDKHPQIQGFEYQRTYVEGGVKYYLFVEKGTKLDE” and “HMATYTPYDKQGAKLWRVTAYLGMDSVTGKQRNMKKGGFKTKKEAQLYYNQVKLDFENGTLDQ” are within 0.2 log units of each other in “soluble fraction (log2)” value: 0.0865 for the first, 0.22 for the second.

First: HMQEAGKWLKKLRTERKITLEQLSKKTGLSVGFLSQFERGLTSIAIDTLEKIAAVFNVTIDYFISP
Second: HMNHYTEEYILKRMKDFFTTHAYITRRDIESLFGFRRSYATKWLKHFRESGVLKQSGPVNSAVYLL
The “soluble fraction (log2)” value of the first is higher: 0.22 for the first, -1.12 for the second.

First: HMESKDIRYVQLQTVSPEEVLQALALIMPRSDVYVEPTGKLVVLHGSKETLDRAEELILALDNAV
Second: HMNLLPAGTYKLKDLVTAEDEEIGAKKGDVVIAHEDTPPSDRVLGVDIFPVIHKNTSKKIYVSLEDI
The “soluble fraction (log2)” value of the first is lower: -0.641 for the first, 0.101 for the second.

Compared with “HMQLGSILAYKFPQFGGIDGAWQVRDDSNGTGPYIAFWDAKTIGRGMPTEDELTAWAQEYEA”, “HMRVLEYTADGSRLDVLLSQDGVLSRSRAAELIKGGAVTVDGRAEGKPSAKPAPGALVRVEVPE” is higher in “soluble fraction (log2)” value: -1.38 for the first, no less than 0.43 for the second.

First: HMDTLHGRILEEFSRKIVDGTWPPGFSLPKETELADQYGVSRMTMNKVLTRLASDGFVIRRKRSGTVVAQP
Second: HMAPVLTATVNTTSGKLNMRAAASATSAKLTSIPRGATVTVLEKGTTWSRISYGGYTGYVMTQYLKFD
The “soluble fraction (log2)” value of the first is higher: -0.176 for the first, -0.575 for the second.

First: HMNDYNLTDREKEVLTFLFQGLEYKEIGMKMSVSPNTIRNHISNIYKKLHVTSKTQAIRVFLNN
Second: HMRKPDLTSVRTLIRSVSKLARHLKISPNGIYRWISVNRIPGAHVVKVANYYDVEIRDLVHLTGSD
The “soluble fraction (log2)” value of the first is higher: -0.0426 for the first, -0.578 for the second.

Going from “HMYYNDEELDGYRGTPSDAYSDNAVEEFREVLYTLREDEVSGWVRSLQLRGIFLPDAIKDETFLI” to “HMDAHIGTLTPRERETLHHLAIGHSNKVIAKKLNLAESTVKAYVQSILRKLGLSSRVQAAVYAIQHDIR”, the “soluble fraction (log2)” value rises from -1.84 to -0.23.

Compared with “HMNTAIPIAIDQLRIGMYIQLGLNWMSHPFPVSSFRIASESQIEILRGLGLAEVRYVPAKSDPVP”, “HMPIGENIKRLRIMHGLSQKELAQIAGVSDKAVSTWENGTKEPRMGAVQKITGYFGLKKSNLIEDNGL” is higher in “soluble fraction (log2)” value: -0.911 for the first, 0.0537 for the second.

Going from “HMAISQYGSQSDEVTKIQTRLKAWGYFDGPVTAYYGSQTTEAVKKFQQKHGLSATGVADAKTLELIGLP” to “HMNDAARQTTDILQHVRSSGSISFRDLWRLFMPFMAYRDFDAAVKSLVAAGHIATTENERKELHLIAF”, the “soluble fraction (log2)” value falls from 0.056 to -1.42.

Going from “HMGKQIKEIVEEYYDSTSKNSPVGGSWKTSLDGVDLTSPNITIWTRTKIKYVDGSESIVTPQSL” to “HMDSPALAIPSSAILRDGLEHIFFRQDPSDPDQVIRVVADLGLSDGRWTVVRSGLERTDQVVLSGA”, the “soluble fraction (log2)” value rises from -0.528 to -0.281.

First: HMHMSKKLADSIISLRRKHGFSQEQLAEKIGVTRQAISNWERGTATPDVETLNLIAKLFDMDLLAIINGE
Second: HMAFKEQLKAARLAKGYTQEQLATAIGVAKSTFTGYEKGNSEPNMLTIKKLMEILEVDANYLWY
The “soluble fraction (log2)” value of the first is higher: -0.514 for the first, -1.44 for the second.

Going from “HMELADNFAKLILTARESKGWTQAQLGQRMAETINVIKSAESGKPPADSVIRKFEMILGIELM” to “HMNLESNQYVIDISDSQVINKDEFETILNQNKTKDIVIKSNNNVTFTFEKGSMIGAEGKDNYDFSSQVNY”, the “soluble fraction (log2)” value falls from -0.121 to -0.588.

Going from “HMTAQLSITLNGETRRAAAGSIADLVRSLELDPAKVAVERNGLIVPRSTLAEVALGDGDVLEIVHFV” to “HMHLNVYRDEDEAMLAFKDHLIGTHQPIRVRVEKALPDGTMGHKIVDTTIGRIVFNHNIPQD”, the “soluble fraction (log2)” value rises from -0.4 to 0.0727.

Going from “HMELDREALSDGLRRLSQLLAEDDIESRTLFRELAPGLKEQLGDDAVEKLAGHISRYEFEQAGALLATSG” to “HMSAHDLQVVLRWIGTDEPMTDQRYRITTEDGRTFEGRTDDAGLTERVASTIPFGRYSIEALD”, the “soluble fraction (log2)” value falls from -0.61 to -1.

First: HMSEATTVNYKYAVTISDLRIRKGPGTNYGSVGYTGKGVFTIVAEKGGWGKLKSGAGWISLNSKYGHKVS
Second: HMHDNPLSAQEQRVLDLIAAGKTSKEIASQLFLSDGTVRNYTTSIFNKLNANNRVEAINIAQENGW
The “soluble fraction (log2)” value of the first is lower: -0.314 for the first, 0.123 for the second.

Going from “HMNELPSVIIMKNGRTRPYELQEISKDEEWLNQTIREHGIEPKDIFIAEFWDGRTAFILNDGRIVK” to “HMSQSDLASAIGARVTIRLREASGGFRDIVGVLQRFGSGYGELINSKGEALTFSESEIAIWREVKA”, the “soluble fraction (log2)” value rises from -1.14 to 0.361.

“HMGQHSAELKLHPQDLGQVTISMKVEDNQAQLQMVSGHGHVRAALEAALPQLRSQLADSGIQLTQSSIS” and “HMEEQQIQLIQMKMEKDHKYVGKKISELRIKNMLIVLIKRGDEDIIPRAEVKIKEGDILVLSAQSYEG” are within 0.2 log units of each other in “soluble fraction (log2)” value: -0.223 for the first, -0.29 for the second.

Going from “HMGRQTITLPDFSGQDLEQVKARLTEWGLVPEEKSVFSDSVPLGSVVRTVPAEGDEVSVGDTVTVYKSLGR” to “HMQGEASDAQLKAIFAIARKLGITDDFEVHRKASRLAGVPEPEVLPSLKSLTYAQASAVIKALQEELE”, the “soluble fraction (log2)” value falls from 0.252 to -0.0238.

“HMIPLKTEAIPVSYGDGAAIIRSLAVAFPSRTFHWDAQTRRIIGQALDEEWQVIRSLVWQLDIP” and “HMSTEEYDRGYEQGLEEAAKADDAWVANLIKIYSQNTPESMPETMKGRLDAFLYEQQRRAQSVPEM” are within 0.2 log units of each other in “soluble fraction (log2)” value: -1.06 for the first, -1.09 for the second.

First: HMSKGKNEVIAYLKAHNDHRLTVAEILDGLKEEGISINRSTIYRNLDKLVENGDILAFKGKDSESAFYQYS
Second: HMKNLHLVPNVVGMSAKEAKNTLKSFNIKYKPIYGSSNKYDENYIFNQNPRKGKTIKEQEVVTIYISRGAD
The “soluble fraction (log2)” value of the first is lower: -0.643 for the first, no less than 0.43 for the second.

Going from “HMQNESGLFTMSDLWEAGLMGSENASRKRAAVGAFLGIGFGNGKQFLKRLNHFGVTKEEWESALEQLGE” to “HMKHKYWEIKERIKKDILNEVYKKGESIPSERDLAGIYDVTRVTVQKAMAMLVQEGYIERIHGKGMFVLKN”, the “soluble fraction (log2)” value rises from -0.447 to -0.0581.

First: HMAPFSGVEPREWDSLVERGRQSGEVHAEDVTHVLRHVELTGDVLTDVQSKMAEHGITIDDA
Second: HMDKIEVVEVDMSKPYEDMTVTELQNVILDKLASNGPVTNQMKKDVSENIYHDSLVNWAKSF
The “soluble fraction (log2)” value of the first is higher: -0.0344 for the first, -0.541 for the second.

First: HMQTYTYYIAKNDISIGQKITPDMLIEKQVNLGDSKDRYLSREQLETGKYIAVRQIPAGELISSASANE
Second: HMSAIEIDAEKILNYLTDRGGKMPYGDTTAPEVIKDKFNISKAAFKRALGFLLRSNKIEQIDGWTYI
The “soluble fraction (log2)” value of the first is higher: 0.0749 for the first, -0.375 for the second.

Going from “HMNPETPAQQAVRKRLIVSVQFYRRLKDTPLKAVWQVAARDTLVNGYNLFLKRNIHAFNDRTLSTPSALS” to “HMDIADKLTKREFEIFIAIAMNKSRFDIANELGLSAKTVSNGLTVIKRKLNAVPSQFSAIAAKHGYIG”, the “soluble fraction (log2)” value falls from 0.089 to -0.408.

“HMTDEEKENLREKMLEAGFPLLKQYGMTHTSVAKITQAAGIAVGTFYSFWKNKEAYMADLIGYHRR” and “HMTPILTAQQVVAALQAAGYRNVHDLEFEHGRWEADAVNAAGQRVELHINPYTGAIERERLD” are within 0.2 log units of each other in “soluble fraction (log2)” value: 0.105 for the first, -0.0319 for the second.

— the domain aggregation screens of Martell et al. (2025)
